Measured values from patent US7217686B1, “DNA sequence encoding oncofetal ferritin protein” (Gardino Investment N.V., priority 1999, dated 2007).
“And” between values parts separate entries of the source, which are not always exact repeats. Equal values may be shown once.

Legend:
[1] = tested on: C57Bl Donor lymphocytes in transplanted Balb/c mice; test: Bone marrow transplantation C57Bl into Balb/c, flow cytometry for donor K^b positive cells; format: in vivo; conditions: Balb/c BMT treated with OFF1 (ex vivo 1 μg/ml, 10 μg i.p. for 14 days); 6 weeks post transplantation; results not shown
Source text: Animals: C57BL/6 (H2^b) and BALB/c (H2^d) mice were purchased from Harlane. Donors and recipients were 8–10 wk of age at the time of BMT. All mice were housed in a specific pathogen-free facility in microisolator cages.
Ex-vivo induction of anergy in mixed lymphocyte reaction (MLR): C57Bl donor bone marrow (responder) was harvested 2 days before transplantation. Balb/c recipient (stimulator) spleen cells were irradiated at a midplane dose of 3300 cGy. The cells were resuspended in RPMI-1640 medium with 5% mouse serum to 4×10^6/ml and incubated with 1 μg/ml of OFF1 for 30 min.
The erythrocyte depleted mononuclear cell fraction of the marrow was resuspended at a concentration of 4×10^6/ml in the above medium in a Donor:Recipient ratio of 1:1. The cells were cultured in tissue culture flasks for 36 hours at 37° C. in 5% CO2, washed and resuspended to 2×10^7 cells/1 ml in PBS containing OFF1 (1 μg/ml).
Bone marrow Transplantation (BMT): Balb/c recipients were sublethely irradiated by exposing mice to 5;5 GRAY total body irradiation from a ^137Cesium source at a dose rate of 85 cGY/min.
Day 2 MLR cultured cells (10^7/0.5 ml) were injected intravenously to BALB/c mice pretreated with OFF1 ((10 μg) injected i.p.) (BMT+OFF1). […]
All results were obtained using FACS (Beckton Dickenson). […] 10,000 cells were analyzed for each determination.

[2] = tested on: splenocytes from Balb/c mice transplanted with C57Bl bone marrow; test: MLR of splenocytes from bone marrow transplanted Balb/c mice against alloantigens; format: cell-based
Source text: (§1) Immunologic assay: Splenocytes from bone marrow transplanted (BMT) Balb/c mice were reacted as above in MLR against the donor C57Bl splenocytes or against non-related splenocytes, to measure their immunoresponsiveness to the corresponding alloantigens.
Splenocytes obtained from Balb/c mice (K^b) treated with BMT+PBS (control) and with BMT+OFF1 were used as responder cells (R) and were reacted with C57Bl (K^b) splenocytes as stimulator cells (S) in MLR.

[3] = tested on: human bone marrow progenitor CFU-GM; test: CFU-GM colony assay with normal human bone marrow mononuclear cells; format: cell-based; conditions: for number of CFU-GM colonies: scored after 14 days
Experimental: Bone marrow samples from 11 healthy volunteer donors were processed by density gradient separation using […] (Sigma diagnostics, St. Louis, Mo., USA) to obtain a purified population of mononuclear cells. Colony assays were performed in a plating medium containing final concentrations of 0.92% methyl cellulose (M-281 powder, 4,000 centipoise, Fisher Scientific Co., Fair Lawn, N.J., USA), rehydrated in Iscove's modified Dulbecco's medium containing 36 mM sodium bicarbonate (Gibco, Grand Island, N.Y., USA), 30% fetal bovine serum (FBS) (HyClone, Logan, Utah, USA) 0.292 mg/ml glutamine, 100 U/ml penicillin and 0.01 mg/ml streptomycin (Biological Industries, Beit Haemek, Israel). Growth factors used were […] GM-CSF Leucomax (Sandoz Pharma) and 5% vol/vol human phytohemagglutinin-M (Difco Laboratories, Detroit, Mich., USA)-induced conditioned medium (Cond. Med.) p43 (PLF) was added at concentration of 1 μg/mL and in neutralization experiments, p43 (PLF) was preincubated with 10× excess of CM-H-9 MoAb at 37° C. for 30 min and the complex added to the assay as above. The colony assay medium contained 10^5 mononuclear cells/ml and each 1 ml was plated into triplicate wells (333 μl/well) of a 24 well tissue culture plate (Greiner, Germany). Water was added to spaces between cells to maximize humidity during incubation of the cultures. The cultures were incubated at 37° C. in 5% CO2 and 55% relative humidity. Plates were scored after 14 days for colonies containing more than 50 cells.

[4] = tested on: splenocytes from Balb/c mice transplanted with C57Bl bone marrow; test: In-vitro OFF1 treatment of splenocytes from transplanted Balb/c mice in MLR; format: cell-based
Source text: as §1
In further experiments we tested the in-vitro effect of OFF1 treatment on responsiveness of splenocytes from control BMT+PBS against both donor C57Bl stimulators and against ICR stimulators.

[5] = 11 donors, Cond. Med. 5% vol/vol, p43 (PLF) 1 μg/ml, GM-CSF 15 ng/ml

B1: OFF1: oncofetal ferritin 1 protein, purified from term placenta, termed also p43 (placental isoferritin, PLF) (protein)
chain: MTTASTSQVRQNYHQDSEAAINRQINLELYASYVYLSMSYYFDRDDVALKNFAKYFLHQSHEEREHAEKLMKLQNQRGGRIFLQDIKKPDCDDWESGLNAMECALHLEKNVNQSLLEFPSPISPSPSCWHHYTTNRPQPQHHLLRPRRRKRPHSIPTPILIFRSP
modifications: left off: a dimerising Fc or GST
With B1 the “K^b positive donor cells in bone marrow and spleen” value [1] was “development of hematopoietic chimerism”, the “P.I. (Proliferation Index), BMT + OFF1, in-vitro treatment None” value ([2]; Stimulator C57Bl) was 1.3 and the “P.I. (Proliferation Index), BMT + OFF1” value ([2]; Stimulator C57Bl, S/R Ratio 0) was 1. The “P.I. (Proliferation Index), BMT + OFF1” value ([2]; Stimulator C57Bl, S/R Ratio 0.2) was 1.3, the “P.I. (Proliferation Index), BMT + OFF1” value ([2]; Stimulator C57Bl, S/R Ratio 1) was 1 and the “P.I. (Proliferation Index), BMT + OFF1” value ([2]; Stimulator C57Bl, S/R Ratio 4) was 1.1. The “P.I. (Proliferation Index), BMT + OFF1, in-vitro treatment None” value ([2]; Stimulator ICR) was 9.6, the “P.I. (Proliferation Index), BMT + OFF1” value ([2]; Stimulator ICR, S/R Ratio 0) was 1 and the “P.I. (Proliferation Index), BMT + OFF1” value ([2]; Stimulator ICR, S/R Ratio 0.2) was 1.8. For the same molecule, the “P.I. (Proliferation Index), BMT + OFF1” value ([2]; Stimulator ICR, S/R Ratio 1) was 2.6, the “P.I. (Proliferation Index), BMT + OFF1” value ([2]; Stimulator ICR, S/R Ratio 4) was 9.6 and the “response of splenocytes of BMT+OFF1 chimeric mice to donor C57Bl stimulators in MLR” value ([2]; any S/R ratios) was “completely anergic”. The “MEDIAN number of CFU-GM colonies” value [3, 5] was 94, the “RANGE of number of CFU-GM colonies” value [3, 5] was 0–748 and the “mean number of CFU-GM colonies (AVG.)” value [3, 5] was 169+/−216 and 169. The “number of CFU-GM colonies” value ([3]; Bone Marrow No. 1, Cond. Med. 5% vol/vol, p43 (PLF) 1 μg/ml, GM-CSF 15 ng/ml) was 280, the “number of CFU-GM colonies” value ([3]; Bone Marrow No. 2, Cond. Med. 5% vol/vol, p43 (PLF) 1 μg/ml, GM-CSF 15 ng/ml) was 748 and the “number of CFU-GM colonies” value ([3]; Bone Marrow No. 3, Cond. Med. 5% vol/vol, p43 (PLF) 1 μg/ml, GM-CSF 15 ng/ml) was 152. The “number of CFU-GM colonies” value ([3]; Bone Marrow No. 4, Cond. Med. 5% vol/vol, p43 (PLF) 1 μg/ml, GM-CSF 15 ng/ml) was 28, the “number of CFU-GM colonies” value ([3]; Bone Marrow No. 5, Cond. Med. 5% vol/vol, p43 (PLF) 1 μg/ml, GM-CSF 15 ng/ml) was 94 and the “number of CFU-GM colonies” value ([3]; Bone Marrow No. 6, Cond. Med. 5% vol/vol, p43 (PLF) 1 μg/ml, GM-CSF 15 ng/ml) was 6. For the same molecule, the “number of CFU-GM colonies” value ([3]; Bone Marrow No. 7, Cond. Med. 5% vol/vol, p43 (PLF) 1 μg/ml, GM-CSF 15 ng/ml) was 0, the “number of CFU-GM colonies” value ([3]; Bone Marrow No. 8, Cond. Med. 5% vol/vol, p43 (PLF) 1 μg/ml, GM-CSF 15 ng/ml) was 242 and the “number of CFU-GM colonies” value ([3]; Bone Marrow No. 9, Cond. Med. 5% vol/vol, p43 (PLF) 1 μg/ml, GM-CSF 15 ng/ml) was 8. For the same molecule, the “number of CFU-GM colonies” value ([3]; Bone Marrow No. 10, Cond. Med. 5% vol/vol, p43 (PLF) 1 μg/ml, GM-CSF 15 ng/ml) was 210, the “number of CFU-GM colonies” value ([3]; Bone Marrow No. 11, Cond. Med. 5% vol/vol, p43 (PLF) 1 μg/ml, GM-CSF 15 ng/ml) was 94 and the “concentration giving the highest number of CFU-GM colonies” value ([3]; dose response, bone marrow progenitor cells from three donors (FIG. 10)) was 1 μg/1 mL. For the same molecule, the “Mean CFU-GM following preincubation with MoAb CM-H9” value ([3]; p43 (PLF) 1 μg/mL preincubated with 10× excess of CM-H-9 MoAb at 37° C. for 30 min) was 7+/−10, the “P.I. (Proliferation Index), BMT + OFF1, in-vitro treatment OFF1” value ([4]; Stimulator C57Bl) was 1.3 and the “P.I. (Proliferation Index), BMT + PBS, in-vitro treatment OFF1” value ([4]; Stimulator C57Bl) was 1. For the same molecule, the “P.I. (Proliferation Index), BMT + OFF1, in-vitro treatment OFF1” value ([4]; Stimulator ICR) was 4.7 and the “P.I. (Proliferation Index), BMT + PBS, in-vitro treatment OFF1” value ([4]; Stimulator ICR) was 3.5.
